According to paper PMC6997106, “The Trp triad within the V-domain of the receptor for advanced glycation end products modulates folding, stability and ligand binding” (Bioscience Reports, 2020):
Where a chain is given by its changes, count along the chain named. Names may count otherwise.

B1: RAGE-derived peptide W72 (RAGE residues 65-79) (peptide)
peptide: Ac-SPQGGGPWDSVARVL-NH2
notes: RAGE, human, residues 65-79; also called W72 peptide; source: synthetic peptide
B2: RAGE V-domain (residues 23-132), wild type (domain or fragment, human, UniProt Q15109 23-132, looked up)
chain: AQNITARIGEPLVLKCKGAPKKPPQRLEWKLNTGRTEAWKVLSPQGGGPWDSVARVLPNGSLFLPAVGIQDEGIFRCQAMNRNGKETKSNYRVRVYQIPGKPEIVDSASE
notes: receptor for advanced glycation end products (RAGE), human, V-domain, residues 23-132 of uniprot Q15109; Cloned into pET15b by NcoI and XhoI; also called WT; wild-type V-domain; source: E. coli Shuffle T7 Express, purified (HisTrap HP, HiTrap SP FF cation exchange)
B3: Recombinant human S100B (natural protein)
chain: MSELEKAMVALIDVFHQYSGREGDKHKLKKSELKELINNELSHFLEEIKEQEVVDKVMETLDNDGDGECDFQEFMAFVAMVTTACHEFFEHE
notes: S100B, human, uniprot P04271; Homodimer in the crystal structure 5D7F; also called calcium-loaded S100B
B4: RAGE V-domain (residues 23-132) W61A (domain or fragment, human, UniProt Q15109 23-132, looked up)
chain: B2 chain with W39A
notes: RAGE, human, V-domain, residues 23-132 of uniprot Q15109; Same construct as m1 with the mutation; source: E. coli Shuffle T7 Express, purified (HisTrap HP, HiTrap SP FF cation exchange)
B5: FITC-labeled recombinant human S100B (natural protein)
chain: B3 chain
modifications: fluorescein (FITC labeling kit, 5-fold excess of FITC over protein; sites not stated)
notes: S100B, human, uniprot P04271; the titrations were fitted with a 1:1 RAGE:S100B model; also called S100B-FITC; FITC-labeled S100B; source: labeled with an FITC labeling kit (Pierce/Thermo Fisher 53027)
B6: RAGE V-domain (residues 23-132) W72A (domain or fragment, human, UniProt Q15109 23-132, looked up)
chain: B2 chain with W50A
notes: as for B4

Columns and labels:
Recombinant human S100B [1] = target: B3; experiment: crystal structure; 2 mM S100B with 3 mM peptide W72, CaCl2 present; sitting drop, 0.1 M Na cacodylate pH 6.8, 22% PEG 3350, 5 mM CaCl2, 20°C; conditions: both partners purified
Recombinant human S100B [2] = target: B3; experiment: tryptophan fluorescence lifetime; 1 µM V-domain, with S100B in the presence of 2 mM calcium; excitation 280 nm; amplitude weighted average lifetime τm; conditions: both partners purified
[3] = target: T1, RAGE V-domain (residues 23-132) W51A/W61A (human, UniProt Q15109 23-132, W51A | W61A); experiment: steady-state tryptophan fluorescence; emission spectra of V-domains alone and as V-domain:S100B complexes; excitation at 295 nm; conditions: both partners purified
T1 construct: RAGE, human, V-domain, residues 23-132 of uniprot Q15109; Same construct as m1 with the mutations; also called W51/W61; source: E. coli Shuffle T7 Express, purified (HisTrap HP, HiTrap SP FF cation exchange)

[4] = target: B2; experiment: as above; conditions: both partners purified
[5] = target: T2, RAGE V-domain (residues 23-132) W61A/W72A (human, UniProt Q15109 23-132, W61A | W72A); experiment: as above; conditions: both partners purified
T2 construct: RAGE, human, V-domain, residues 23-132 of uniprot Q15109; Same construct as m1 with the mutations; source: E. coli Shuffle T7 Express, purified (HisTrap HP, HiTrap SP FF cation exchange)

[6] = target: B4; experiment: as above; conditions: both partners purified
[7] = target: B6; experiment: as above; conditions: both partners purified
[8] = target: T3, RAGE V-domain (residues 23-132) W51A/W72A (human, UniProt Q15109 23-132, W51A | W72A); experiment: as above; conditions: both partners purified
T3 construct: RAGE, human, V-domain, residues 23-132 of uniprot Q15109; Same construct as m1 with the mutations; source: E. coli Shuffle T7 Express, purified (HisTrap HP, HiTrap SP FF cation exchange)

[9] = target: T4, RAGE V-domain (residues 23-132) W51A (human, UniProt Q15109 23-132, W51A); experiment: as above; conditions: both partners purified
T4 construct: RAGE, human, V-domain, residues 23-132 of uniprot Q15109; Same construct as m1 with the mutation; source: E. coli Shuffle T7 Express, purified (HisTrap HP, HiTrap SP FF cation exchange)

[10] = target: the molecule itself; experiment: crystal structure; 2 mM S100B with 3 mM peptide W72, CaCl2 present; sitting drop, 0.1 M Na cacodylate pH 6.8, 22% PEG 3350, 5 mM CaCl2, 20°C
[11] = target: T1, RAGE V-domain (residues 23-132) …; experiment: fluorescence polarisation; 1 µM S100B-FITC in 50 mM Tris, pH 7.0, 2 mM CaCl2 titrated with V-domain stock solutions; 1:1 RAGE:S100B model; apparent; conditions: both partners purified
[12] = target: B2; experiment: as above; conditions: both partners purified
[13] = target: T2, RAGE V-domain (residues 23-132) …; experiment: as above; conditions: both partners purified
[14] = target: B4; experiment: as above; conditions: both partners purified
[15] = target: B6; experiment: as above; conditions: both partners purified
[16] = target: T3, RAGE V-domain (residues 23-132) …; experiment: as above; conditions: both partners purified
[17] = target: T4, RAGE V-domain (residues 23-132) W51A; experiment: as above; conditions: both partners purified

Binder: B1
binding result (Recombinant human S100B [1]): binds

Binder: B2
Δτm (change of the average Trp fluorescence lifetime with S100B) (Recombinant human S100B [2]): -0.83 ns

Binder: B3
binding result [3]: binds
binding result [4]: binds
binding result [5]: binds
binding result [6]: binds
binding result [7]: binds
binding result [8]: binds
binding result [9]: binds
binding result [10]: binds

Binder: B4
Δτm (change of the average Trp fluorescence lifetime with S100B) (Recombinant human S100B [2]): -0.8 ns

Binder: B5
Kd [11]: 660 ± 120 nM
Kd [12]: 2700 ± 300 nM
Kd [13]: 370 ± 90 nM
Kd [14]: 870 ± 40 nM
Kd [15]: 1120 ± 1010 nM
Kd [16]: 460 ± 320 nM
Kd [17]: 480 ± 60 nM

Binder: B6
Δτm (change of the average Trp fluorescence lifetime with S100B) (Recombinant human S100B [2]): -1 ns
